GFP+ cells by flow cytometry (split GFP trans-splicing reporter) in the presence of 1.5 mM ABA (% of cells GFP+) data for 1 substance are collected here from patent publication US20240035031A1.

This assay deals with PYL1-MS2 (MS2 binding protein fused to PYL1 via a glycine-serine linker) (UniProt Q8VZS8). Put plainly: cell-based or functional assay.

For the substance “dPspCas13b-ABI1 (catalytically inactive Prevotella sp. Cas13b fused to the abscisic acid-binding protein ABI1 via a glycine-serine linker) (from UniProt P49597 126-423)”, the GFP+ cells by flow cytometry (split GFP trans-splicing reporter) in the presence of 1.5 mM ABA (% of cells GFP+) was more than 40.
